B1: C062 (antibody, V domains shown)
VH: EVQLVESGGGLVKPGGSLRLTCAASGFTFSTYSMNWVRQAPGKGLEWVSSISSSSSYIYYADSVKGRFTISRDNAKNSLYLQMNSLRAEDTAVYYCARERGYYGGKTPPFLGGQGTLVTVSS
VL: NFMLTQPHSVSESPGKTVTISCTGSSGSIASNYVQWYQQRPGSAPTTVIYEDNQRPSGVPDRFSGSIDSSSNSASLTISGLKTEDEADYYCQSYDSSNYWVFGGGTKLTVL
B2: C088 (antibody, V domains shown)
VH: QVQLVQSGAEAKKPGASVKVSCKTSGYTFTNYFMHWVRQAPGQGPEWMGIIDSSDGGASYAQKFQGRVTMTRDTSTSTVYMELRSLKFEDTAVYYCARASTSTTSWSDALSLGSWGQGTLVTVSS
VL: QSVLTQPPSVSGAPGQRVTISCTGSSSNIGGGSVVHWYQQLPGTAPKLLIYANSNRPSGVPDRFSGSKSGTSASLAIAGLQAEDEADYYCQSWDNGLSASGVVFGGGTKLTVL
B3: C058 (antibody, V domains shown)
VH: QVQLVQSGAEVKKPGASVKVSCKASGYIFTDYSMHWVRQAPGQGLEWIGWVNPNSGGTNYAQKFQGWVTMARDTSITTVYMELSRLKSDDTAVYFCARGPLFHRLVYDFWSGYHDGFDMWGQGTMVTVSS
VL: QSALTQPASVSGSPGQSITISCTGTSSDVGGYKFVSWYQQHPGKAPKLMIYEVSNRPSGVSNRFSGSKSGNTASLTISGLQAEDEADYYCNSYTSSSTWVFGGGTKLTVL
B4: C059 (antibody)
chain 1: QVQLVQSGAEVKKPGASIKVSCKASGYTFTDYSMHWVRQAPGQGLEWMGWINPNSGGTKYAQKFQGWVTMTRDMSITTVYMELTRLRSDATAVFYCARGPLFHKLVYDSWTGYHDGFDIWGQGTMVTVSS
chain 2: QSALTQPASVSGSPGQSITISCTGTSSDVGGYNYVSWYQHYPGKAPKLMIYEVTHRPSGVSNRFSGSKSGNTASLTISGLQAEDEADYYCSSSTNSSTWVFGGGTKMTVL
B5: C057 (antibody, V domains shown)
VH: QVQLVQSGAEVKRPGASVKLSCKASGYIFTDYSIHWVRQAPGQGLEWMGWVNPNSGGGNSAQKFMDWVTMARDTSITTVYMELSRLRSDDTAVYYCARGPLFHKLVYDSWSGYHDGFDIWGQGTMVTVSS
VL: QSALTQPASVSGSPGQSITISCTGTSSDVGAYKFVSWYQQHPGKAPQLIIYEVSNRPSGVSNRFSGSKSGNTASLTISGLQAEDEADYYCSSYTNASTWVFGGGTELTVL
B6: C050 (antibody, V domains shown)
VH: EVQLVESGGGLFQPGGSLRLSCAASGFSVRNNYVSWVRQAPGKGLEWVSVIYSGGTTYYADSVKGRFTISRDISENTLYLQMNSLRAEDTAVYYCAREGDVEGLHDFWSGYSRDRYYFDYWGQGTLVTVSS
VL: QSALTQPASVSGSPGQSIIISCTGTSGDIGGYNYVSWYQQHPGKAPKLMIYDVSFRPSGVSNRFSGSKSDNTASLTISGLQAEDEADYYCSSFTGNNTRVFGTGTKVTVL
B7: C052 (antibody, V domains shown)
VH: EVQLVESGGGLIRPGGSLRLSCAASGFSVSNNYMSWVRQAPGKGLEWVSVIYSGGTTYYADSVKGRFNISRDNSKNTVYLQMNSLRAEDTAVYYCAREGDVEGYYDFWSGYSRDRYYFDYWGQGALVTVSS
VL: QSALTQPASVSGSPGQSITISCTGTSSDVGGYNYVSWYQQHPGKAPKLMIYDVSNRPSGVSNRFSGSKSGNTASLTISGLQAEDEADYYCNSYTSNNTRVFGTGTKVTVL
B8: C054 (antibody, V domains shown)
VH: EVQLVESGGGLIQPGGSLRLSCAASGFTVSNNYMSWVRQAPGKGLEWVSVIYSGGSTYDADSVKGRFTISRDNSKNTLYLQMNSLSAEDTAVYYCAREGDVEGYYDFWSGYSRDRYYFDYWGQGTLVTVSS
VL: QSALTQPASVSGSPGQSITISCTGTSSDVGGYNYVSWYQQHPGKAPKLMIYDVSNRPSGVSNRFSGSKSGNTASLTISGLQAEDEADYYCSSYTSSSARVFGTGTKVTVL
B9: C053 (antibody, V domains shown)
VH: EVQLVESGGGLIQPGGSLRLSCAASGFIVSNNYMSWVRQAPGKGLDWVSVIYSGGTTYYADSVKGRFTISRDNSKNTLYLQMNSLRAEDTAVYYCAREGDVEGYHDSWSGYSRDRYYFDYWGQGTLVTVSS
VL: QSALTQPASVSGSPGQSITISCTGSSSDVGGYNFVSWYQQHPGRAPKLMIYDVSNRPSGVSNRFSGSKSGNTASLTISGLQVEDEADYYCSSYTNNNTRVFGTGTKVTVL
B10: C051 (antibody, V domains shown)
VH: EVQLVESGGGLIQAGGSLRLSCAASGFGVRNNYMSWVRQAPGKGLEWVSVIYSGGTTYYADSVKGRFTISRDNSKNTVFLQMNSLRAEDTAVYYCAREGDVEGFSDLWSGYSRDRYYFDYWGQGTLVTVSS
VL: QSALTQPASVSGSPGQSITFSCTGTSSDVGGYNYVSWYQQYPGKAPKLLIYDVTNRPSGVSDRFSGSKSGNTASLTISGLQAEDEADYYCSSFTSSNTRVFGTGTKVTVL
B11: C045 (antibody, V domains shown)
VH: EVQLVESGGGLVQPGGSLRLSCAASGFTFSTYSMNWVRQAPGKGLEWVSYISSSSSTIHYADSVKGRFTISRDNAKNSLYLQMNSLRDEDTAVYYCAREAHDGALTDYGDYLNWFDPWGQGTLVTVSS
VL: SYELTQPPSVSVAPGKTARITCGGTNIGSKNVHWYQQKPGQAPVLVIYYDNDRPSGIPERFSGSNSGNTATLTISRVEAGDEADYYCQVWDTTSDHFYWVFGGGTKLTVL
B12: C948 (antibody, V domains shown)
VH: EVQLVESGGGLVQPGGSLRLSCAASGFTFSRYDMHWVRQATGKGLEWVSIIGTAGDTYYPGSVKGRFTISRDNAKNSLFLQMNSLRAGDTAVYYCARANYDSSGYHNWFDPWGQGTLVTVSS
VL: DIQMTQSPSSLSASIGDRVTITCRASQNINSYLNWYQQKPGKAPKLLIYAASSLQSGVPSRFSGSGSGTDFTLTINSLQPEDFATYYCQQSYSMPSWTFGQGTKVEI
B13: C945 (antibody, V domains shown)
VH: QVQLVQSGAEVKKPGASVRISCKASGYTFTNYYMHWVRQAPGQGLEWMGIINPSGGSTTYAPKFQARVTMTRDTSTSTVYMELSSLRSDDTAVYYCARDYVLVPARSGMDVWGQGTTVTVS
VL: EIVLTQSPATLSLSPGERATLSCRASQSVSSYLAWYQQKPGQAPRLLIYDASNRATGIPARFSGSGSGTDFTLTISSLEPEDFAIYYCQQRSNWPYTFGQGTKLEIK
B14: C946 (antibody, V domains shown)
VH: QVQLVQSGAEVKKPGASVKVSCKASGYTFTNYYIHWVRQAPGQGLEWMGIINPDGDSTSYVQKFQGRVTMTRDTSTSTVYMELSSLRSEDTAVYYCARDLVFVPATSAMDVWGKGTTVTVSS
VL: EIVLTQSPATLSLSPGERATLSCRASQSVSSYLAWYQQKPGQAPRLLIYDASNRATGIPARFSGSGSGTDFTLTISSLEPEDFAVYYCQQRSNWLFTFGPGTKVDIK
B15: C944 (antibody, V domains shown)
VH: QVQLVESGGGVVQPGRSLRLSCAASGFTFSSYGMHWVRQAPGKGLEWVAVISYDGSYKYYADSVKGRFTISRDNSKNTLYLQMNSLRAEDTAVYYCAKGSGSQLYYYYGMDVWGQGTTVTVSS
VL: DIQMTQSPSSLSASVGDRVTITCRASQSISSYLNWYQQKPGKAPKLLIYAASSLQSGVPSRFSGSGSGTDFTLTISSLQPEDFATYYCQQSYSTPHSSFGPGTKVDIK
B16: C940 (antibody, V domains shown)
VH: QVQLQESGSGLVKPSQTLSLTCAVSGGSASSGGYSWSWIRQPPGKGLEWIGYIYHSGSTYYNPSLKSRVTISLDRTKKQFSLKLSSVTAADTAVYYCARFCLSGSHYLFAFDIWGPGTMVTVSS
VL: QSALTQPASVSGSPGQSITISCTATSSDVGGYNFVSWYQQYPGKVPKLLIYDVGNRPSGVSNRFSGSKSGNTASLTISGLQAEDEADYYCSSYTNSSTFFGGGTKLTVL
B17: C941 (antibody, V domains shown)
VH: QVQLVQSGAEVKKPGSSVKVSCKASGGTSRSYPISWVRQAPGQGLEWMGRIIPIVGTANYAQRFQGRVTITADESTGTAYMELSSLRSEDTAVYYCARNRGYSDYGSVYYFDYWGQGTLVTVSS
VL: QSVLTQPPSVSGAPGQRVTISCTGSSSNIGAGYDVHWYQQLPGAAPKLLIYRNINRPSGVPDRFSGSKSGTSASLAITGLQADDEADYYCQSYDSSLSGSVFGGGTKLTV
B18: C943 (antibody, V domains shown)
VH: QVQLVESGGGVVQPGRSLRLSCAASGFPFSSFGMHWVRQAPGRGLEWVALILYDGDNKYYADSVKGRFTISRDNSKNTLYLQMNSLRAEDTAVYYCAKDIGGGSSPPFFDYWGQGTLVTVSS
VL: SYELTQAPSVSLAPGKTARITCGENNIGSKSVHWYQQKPGQAPVLVIYYDSDRPSGIPERFSGSNSGNTATLTISRVEAGDEADYYCQVWDSSSDHVMFGGGTKLTVL
B19: C942 (antibody, V domains shown)
VH: QVQLVESGGGVVQPGRSLRLSCAASGFTFSSYVMHWVRQAPGKGLEWVAIISSDGNTKYYADSVKGRFTISRDNSKNTLYLQMNSVRTDDTAVYYCARDGTTMTPTDLLTDWGQGTLVTVSS
VL: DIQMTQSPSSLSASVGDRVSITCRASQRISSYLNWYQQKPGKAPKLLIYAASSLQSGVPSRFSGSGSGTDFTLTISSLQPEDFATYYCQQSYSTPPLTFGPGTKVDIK
B20: C947 (antibody, V domains shown)
VH: QVQLQESGPGLVRPSGTLSLTCAVTGGSISSSDCWSWVRQPPGKGLEWIGEICHGRTSNYNPSLKSPVSISVDKSKNQFSLILSSVTAADKAVYYCARSSRFLPPLPDAFDLWGQGTMVTVSS
VL: QSVLTQPPSVSGAPGQRVTISCTGSSSNIGAGYDVHWYKQLPGTAPKLLIYGNTNRPSGVPGRFSGSKSGTSASLAITGLQAEDEADYFCQSYDTRLSVVFGGGTKLT
B21: C949 (antibody, V domains shown)
VH: QVQLQESGPGLVKPLQTLSLTCTVSGGSISNGDYYWSWIRQSPGKGLEWIGNIFYSGATYFNPSLKSRVTLSVDTSKNQFSLKLSSVTAADTAVYYCARVVRVLPAASVDCWGQGTLVTVSS
VL: QSALTQPRSVSGSPGQSVPISCTGTSSDVGGYDYVSWYQQHPGKAPKLIIYDVSERPSGVPDRFSGSKSGNTASLTISGLQAEDEATYYCCSYAGTSVMFGGGTKLTVL

One test has as its target SARS-COV-2 RBD (SARS-COV-2, UniProt P0DTC2 319-539). Briefly: ELISA, RBD coated.
In the case of B1, the EC50 amounted to 4.69 ng/mL.
Still for that read-out and setting: under B2 stands 2.44 ng/mL; under B3, 2.28 ng/mL.
The same measure, in the same setting: in the case of B4 it was 1.88 ng/mL; in that of B5, 2.31 ng/mL.
For the molecule B6, the concentration for a half-maximal effect (EC50) amounted to 193 ng/mL.
Still for that read-out and setting: under B7 stands 1.23 ng/mL; under B8, 1.58 ng/mL.
Still for that read-out and setting: under B9 stands 1.53 ng/mL; under B10, 1.65 ng/mL.
Same read-out and setting: in the case of B11 it was 7 ng/mL.

Another test deals with T1, SARS-COV-2 RBD (SARS-COV-2, UniProt P0DTC2 319-539).
T1 construct: also called WT RBD
Description: ELISA, RBD coated on plate.
For B12, the EC50 was determined as 3.26 ng/mL.
B13 had an EC50 of 3.13 ng/mL.
Still for that read-out and setting: under B14 stands 3.82 ng/mL.
The same measure, in the same setting: in the case of B15 it was 1.71 ng/mL; in that of B16, 1.8 ng/mL; in that of B17, 1.92 ng/mL.
The molecule B18 gave an EC50 of 2.59 ng/mL.
On the same count and under the same terms, under B19 stands 2.13 ng/mL.
The same measure, in the same setting: in the case of B20 it was 2.08 ng/mL.
Still for that read-out and setting: in the case of B21 it was 2.33 ng/mL.

(Values after US20240218057A1 (ROCKEFELLER UNIVERSITY, published 2024).)
